We go through 4 molecules from paper PMC9097876 (Science Immunology, 2022).

Conditions in all cases: both partners purified
Assay [1] concerns the target T1, SARS-CoV-2 spike receptor-binding domain (RBD), Alpha variant (SARS-CoV-2, Alpha variant (B.1.1.7), N501Y).
T1 construct: not shown: His tag, C-terminal, kept
Description: BLI. In general terms: BLI is a label-free optical method that tracks binding on a fibre tip over time.

Assay [2] deals with T2, SARS-CoV-2 spike receptor-binding domain (RBD), Gamma variant (SARS-CoV-2, Gamma variant (P.1), E484K | N501Y).
T2 construct: not shown: His tag, C-terminal, kept
Description: BLI.

Assay [3] addresses T3, SARS-CoV-2 spike receptor-binding domain (RBD), Delta variant (SARS-CoV-2, Delta variant (B.1.617.2), L452R | T478K).
T3 construct: not shown: His tag, C-terminal, kept
Description: BLI.

The target of assay [4] is T4, SARS-CoV-2 spike receptor-binding domain (RBD), Delta variant (SARS-CoV-2, Delta variant (B.1.617.2), L452R | T478K).
T4 construct: not shown: His tag, C-terminal, kept
Description: BLI. This is another data set of the same source.

For assay [5], the target named is T5, SARS-CoV-2 spike receptor-binding domain (RBD), Wuhan isolate (SARS-CoV-2, Wuhan, UniProt P0DTC2).
T5 construct: not shown: His tag, C-terminal, kept
Nature of the assay: BLI.

Assay [6] addresses T6, SARS-CoV-2 spike receptor-binding domain (RBD), Alpha variant (SARS-CoV-2, Alpha variant (B.1.1.7), N501Y).
T6 construct: not shown: His tag, C-terminal, kept
Description: BLI. This is another data set of the same source.

In assay [7] the target is T7, SARS-CoV-2 spike receptor-binding domain (RBD), Gamma variant (SARS-CoV-2, Gamma (P.1), E484K | N501Y).
T7 construct: not shown: His tag, C-terminal, kept
Nature of the assay: BLI.

Assay [8] deals with SARS-CoV-2 spike hexapro, prefusion stabilized spike ectodomain trimer (SARS-CoV-2, Wuhan, UniProt P0DTC2, stabilised). Nature of the assay: cryo-EM structure.

B1: G32Q4 Fab (Fab, V domains shown)
VH: QVQLVESGGGVVQPGRSLRLSCAASGFTFSRYAMQWVRQAPGKGLEWVAVISYDGNNRYYADSVKGRFTISRDNSKNTLYLQMNSLRAEDTAVYYCARGPPGYYDSSGYYQTPEYFQHWGQGTLVTVSS
VL: QSVLTQPPSVSGAPGQRVTISCTGSSSNIGVGYDVHWYQQFPGTVPKLLIYGNSNRPSGVPDRFSGSKSGTSASLAITGLQAEDEADYYCQSYDSSLSGVVFGGGTKLTVL
B1: the koff in assay [1] worked out at 0.007 s⁻¹; in assay [2] it was 0.0025 s⁻¹; in assay [3], 0.0062 s⁻¹. The results for the kon in assay [1], in assay [2] and in assay [3] were 930000 M⁻¹ s⁻¹, 2e+06 M⁻¹ s⁻¹ and 1.2e+06 M⁻¹ s⁻¹, respectively.

B2: G32Q4 Fab (Fab, V domains shown)
VH: B1 VH
VL: B1 VL
With B2, the Kd is 53 nM in assay [4], 57 nM in assay [5], 75 nM in assay [6] and 13 nM in assay [7]. For the same molecule, in assay [8], the binding result is recorded as “binds”.

B3: C98C7 Fab (Fab, V domains shown)
VH: EVQLVESGGGLVQPGGSLRLSCAASGITVSSNYMSWVRQAPGKGLEWVSVIYSGGSTFYADSVKGRFTISRDNSKNTLYLQMSSLRAEDTAVYYCARDLVVFGMDVWGQGTTVTVSS
VL: EIVLTQSPGTLSLSPGETATLSCRASQSVGSSYLTWYQQKPGQAPRLLIYGASSRATGIPDRFSGSGSGTDFTLTISRLEPEDFAVYYCQHYGSSPTFGQGTKVEIK
In assay [3], B3 had a Kd of 3.5 nM, a koff of 0.00099 s⁻¹ and a kon of 280000 M⁻¹ s⁻¹.

B4: C98C7 Fab (Fab, V domains shown)
VH: B3 VH
VL: B3 VL
On to B4, for which the Kd in assay [4] was found to be 3 nM; in assay [5] it was 3 nM; in assay [6] it was 6 nM; in assay [7], 1 nM. Also, the binding result in assay [8] is reported as “binds”.

One may read the koff as a measure of how fast the partners let go of each other. A low value points to slow dissociation. As usually defined, the kon is a measure of how fast the partners come together. Low readings indicate slow association, high ones fast association. The Kd is the free concentration of one partner at which half of the binding sites on the other are occupied at equilibrium, for simple one-to-one binding.
